Results taken from PMC10345426, “Structural polymorphism of the PH domain in TFIIH” (Bioscience Reports, 2023).
Read-outs that look alike come from different tables or passages of the source.

T1: PH domain of fission yeast (Schizosaccharomyces pombe) Tfb1, residues 1-108 (Schizosaccharomyces pombe, UniProt O13745 1-108)
T1 construct: General transcription and DNA repair factor IIH subunit tfb1 (spTfb1), Schizosaccharomyces pombe, UniProt name TFB1_SCHPO, N-terminal PH domain, residues 1-108; 15N-labelled in the NMR titration; Residues of the vector may be left at the N-terminus after thrombin cleavage (surmised); also called spPH; spPH domain; source: E. coli BL21-Gold (DE3), pET15b, purified (His-tag resin, thrombin …)
T1 sequence (looked up): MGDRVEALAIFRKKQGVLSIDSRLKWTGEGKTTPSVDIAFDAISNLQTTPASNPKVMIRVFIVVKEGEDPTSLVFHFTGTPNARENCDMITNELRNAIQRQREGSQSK

B1: spRhp41(4-22) peptide, N-terminal acidic string of fission yeast Rhp41 (peptide, UniProt Q10445 4-22, looked up)
peptide: DEDNTYSDDEEWLDLDLGL
notes: Rhp41 (homologue of human XPC and S. cerevisiae Rad4), Schizosaccharomyces pombe, residues 4-22 (holds Trp15, Leu16, Leu18, Leu20, Leu22); source: synthetic peptide, bought: GenScript
B2: spTfa1(416-434) peptide, C-terminal acidic segment of fission yeast Tfa1 (peptide, UniProt Q9P3W1 416-434, looked up)
peptide: NGFNEDDEDDEDEADFEDV
notes: Tfa1 (homologue of human TFIIEalpha), Schizosaccharomyces pombe, residues 416-434; source: synthetic peptide, bought: GenScript
B3: spTfa1(332-350) peptide, acidic segment of fission yeast Tfa1 (peptide, UniProt Q9P3W1 332-350, looked up)
peptide: DSENVDDEEDDDFLDVTTA
notes: source: synthetic peptide, bought: GenScript

How the values were obtained:
[1] = biological target: TFIIH Tfb1 PH (Saccharomyces cerevisiae) (UniProt P32776); conditions: cited from earlier work
Chain of TFIIH Tfb1 PH (Saccharomyces cerevisiae) (P32776 1-115): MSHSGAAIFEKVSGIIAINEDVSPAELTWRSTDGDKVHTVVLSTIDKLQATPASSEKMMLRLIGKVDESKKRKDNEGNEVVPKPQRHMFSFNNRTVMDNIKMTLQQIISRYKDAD

[2] = biological target: TFIIH p62 PH (Homo sapiens) (UniProt P32780); conditions: cited from earlier work
Chain of TFIIH p62 PH (Homo sapiens) (P32780 1-108): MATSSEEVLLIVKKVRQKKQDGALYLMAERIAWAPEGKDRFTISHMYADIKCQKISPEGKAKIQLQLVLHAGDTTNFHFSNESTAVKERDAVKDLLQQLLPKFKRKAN

[3] = biological target: TFIIH p62 PH (Homo sapiens) (UniProt P32780); conditions: cited from earlier work; remark: listed apart in the source
[4] = biological target: T1, PH domain of fission yeast …; experiment: ITC; VP-ITC; syringe 300 uM peptide, cell 2 ml of 30 uM spPH domain; 25 x 20 ul injections; 20 mM potassium phosphate pH 6.8, 20°C; conditions: both partners purified

Row | Molecule | Kd [4] [nM] | other results
1 | scRad4 acidic string (from UniProt P14736) |  | Kd [1]: 50 nM
2 | TFIIEα acidic domain (from UniProt P29083) |  | Kd [2]: 95 nM
3 | hXPC acidic string (from UniProt Q01831) |  | Kd [3]: 58 nM
4 | B1 | 52.1 ± 13.5 | 
5 | B2 | 12.4 ± 6.5 | 
6 | B3 | 148 ± 41.3 | 
